Results taken from the RNAGym collection of RNA variant scans (doi:10.1073/pnas.2313332121).

B1: TPR t1 (parent)
chain: GACCAAUCUGCCCUCAGAGCUCGAGAACAUCUUCGGAUGCAGAGGAGGCAGGCUUCGGUGGCGCGAUAGCGCCAACGUCCUCAACCUCCAAUGCAUCCCACCACAUGAUGAUGCCUGAAGAGCCUUGGUUUUUUG

Variants of: B1
Assay: polymerase ribozyme fitness, log enrichment relative to wild type (log ratio); higher = more active; in vitro selection for triplet polymerase activity
In short: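 In triplicate, a single round of in vitro selection was run on each mutant library, PCR-built and transcribed, covering one subunit of a heterodimeric triplet polymerase ribozyme. Frozen incubation at −7 °C followed annealing with a biotinylated primer, partner subunit and triplets, and extended constructs were then gel-excised, streptavidin-captured and taken through RT-PCR. Fitness is the logarithm of genotype enrichment over wild-type enrichment, from inverse-variance-weighted replicate averages of Illumina-sequenced inputs and outputs. […] only genotypes with ≥10 input reads and ≥1 read per output were kept.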

Variant | polymerase ribozyme fitness (log ratio)
G23U G60U G65C C99G C123U | -7.81
G23U G63C | -6.19
G23U G69C G120A | -5.9
G23U G120A | -6.57
G23U U112G C114U C124G U125C | -7.12
A24C A27G | -6.86
A24C A43U C49A C79A C98U C114U | -7.85
A24C A50C G52U A111C | -6.93
A24C C40U G42A C73A A95U C101U G120A U130C | -7.09
A24C G48C U87A C97U C124A | -7.52
A24C G51U G61C C79A C102A G110U | -6.53
A24C U32C C73A U96G A111U | -7.08
A24G A29U G44U C80A | -6.46
A24G A41C | -2.27
A24G A46U C62G | -5.81
A24G A90U | -2.52
A24G A111G | -2.06
A24G A119G A121U | 1.12
A24G C40U C62G | -3.54
A24G C49A G65C C70A G113U | -6.47
A24G C53U | -2.07
A24G C62A | -2.63
A24G C62U C104A C115A G135C | -4.17
A24G C70G C97A A121G | -5.13

Variant | polymerase ribozyme fitness (log ratio)
A24G C72U C88A G93U | -5.29
A24G C82G A84U U106C | -2.06
A24G C85A U96A | -3.35
A24G C88G C123A U129A | -4.43
A24G C88U A95C C124A U133A | -0.316
A24G C102U | -3.7
A24G C115A | -1.25
A24G G36U G93C U112A | -5.3
A24G G42U G45A C72G C88A A121G U125C | -2.21
A24G G47A | -2.63
A24G G47C A90U | -4.32
A24G G48A C64U U81C A108U G120C | -6
A24G G52A | -1.78
A24G G61U | -1.44
A24G G63C G71U C123G | -5.78
A24G G63U | -3.19
A24G G69A | -4.71
A24G G69U | -0.509
A24G G69U A100U | -1.09
A24G G77A C115U | -2.98
A24G G110A U116G C124A | -6.51
A24G G113A | -3.26
A24G G128A U130G | -4.18
A24G U38A U55A | -2.85

Variant | polymerase ribozyme fitness (log ratio)
A24G U54A A68U G71A U112A | -8.22
A24G U131A | -2.25
A24U A27U C28U G36U A111U | -5.92
A24U A41G A43C U96A C102U A111U | -6.49
A24U A46G G48A C70A A111G | -6.69
A24U A84U C114U G122A U132C | -6.39
A24U A119G | -6.17
A24U C40U | -6.96
A24U C56U | -4.09
A24U C94U A103U G110C G120C U131A | -5.54
A24U C124G | -5.19
A24U C124U | -5.45
A24U G39A | -7.92
A24U G42U A43U C94G U112A U129A | -7.92
A24U G45A G60A C115U | -6.73
A24U G60A | -4.63
A24U G61A | -5.9
A24U G69U C88A C114A | -6.87
A24U G117U | -6.09
A24U U32A G48C C70A A74U U81A A121G U125G | -7.22
A24U U116C G128U | -6.51
G25A A26U A43G G61C U78A C102U G110C | -7.68
G25A A121C | -4.05
G25A C31G U32G C40U C72U U106C A108U C124A | -7.62

Variant | polymerase ribozyme fitness (log ratio)
G25A C31U G63U G77U G117A C124U | -7.34
G25A C40U G63A G113C U129A | -6.66
G25A C49A G57A C89U C97G C115G | -6.47
G25A C64G U81A C114A | -5.93
G25A C64U | -4.8
G25A C70A | -6.74
G25A C124G | -5.14
G25A C124U | -5.31
G25A G45U C88G A90G C99G C115A | -7.43
G25A G61U | -3.17
G25A G63C | -6.68
G25A G71A C79G C115U | -7.59
G25C A119G | -6.74
G25C C34G C70A C104G G110U U116G | -8.24
G25C C97U C104A U109G | -6.31
G25C G35A G44C C114G | -5.95
G25C G61U | -3.53
G25U A37U | -5.61
G25U A37U C40U G44U G47C C64A U106G U112A | -6.12
G25U C31G G42A A46U C70U G110U G128U | -6.32
G25U C34G G36C C97A U112G | -6.79
G25U C53A G69U G107A U116G C123U | -7.07
G25U C56G G63C A121U | -5.04
G25U C56U C123G | -6.4

Variant | polymerase ribozyme fitness (log ratio)
G25U C64G C94U C124G | -6.12
G25U C72U C88A U109C A119U C123U | -8.09
G25U C80A C88U A121C | -6.51
G25U G35A A41U U112G | -7.04
G25U G39U U106A C114U | -5.15
G25U G47U | -6.74
G25U G69U | -4.36
G25U G69U C102U A121U | -5.66
G25U U33A A68U A111C G127C | -6.82
A26C A43G G69A U78G C82G C115A C123U U130G | -6.36
A26C C73A U81C C88A A108G C114G A119U | -6.8
A26C C82A | -5.2
A26C C88U | -5.08
A26C C97U | -5.92
A26C G45C U87C | -6.66
A26C U106A | -3.34
A26C U112C | -4.51
A26G A29G G39U | -3.81
A26G A37U C123U U133A | -2.78
A26G A46C G52C | -4.5
A26G A66C G113C U126G | -6.73
A26G C28A G113A | -4.3
A26G C28G C70G C85U C98U G107U A119G G122A | -6.27
A26G C49U C64U U87A | -3.25

Variant | polymerase ribozyme fitness (log ratio)
A26G C56U | -1.28
A26G C70U C94G A103G G117C | -7.12
A26G C73A A74U U78A | -2.49
A26G C86U | -2.13
A26G C94G A105C C123G | -5.27
A26G C123G C124U G135U | -1.25
A26G G42C U59C G113A | -5.32
A26G G44C | -2.38
A26G G44U C56U G120U U130A | -2.98
A26G G45A | -2.64
A26G G45A G48U | -3.98
A26G G45C A75U | -4.25
A26G G45C G48U C88U | -5.02
A26G G48A C53G C89U A91C | -4.13
A26G G60U G77A A84C C102G U112A U116C | -5.99
A26G G63C | -1.65
A26G G93A C114A | -3.14
A26G G120U | -1.88
A26G U30A C104G C115A | -5.53
A26G U38A G39U | -4.5
A26G U59A C62A G63A | -5.96
A26G U112G | -0.342
A26G U130A | -3.31
A26U A37U G52U A90U U112C | -6.53

Variant | polymerase ribozyme fitness (log ratio)
A26U A41C | -4.03
A26U A50C C56A C124A | -2.3
A26U A74G C98U | -4.46
A26U A84C C102U C115A U133G | -6.15
A26U A121U | -0.422
A26U C40A | -4.26
A26U C40U | -4.02
A26U C49U A66G A84C C124G | -4.9
A26U C49U C98U | -4.89
A26U C53U A74G G77U U125A | -4.77
A26U C62G C124A | -3.42
A26U C62U U78C G128C | -6.34
A26U C70U U78C | -4.92
A26U C72U | -2.63
A26U C72U C123U | -2.2
A26U C79G C124U | -4.91
A26U C94U | -2.76
A26U C94U C123G U132C | -1.68
A26U C123G | -1.74
A26U G44U C64G C89U U112G | -6.55
A26U G45A U54A | -4.06
A26U G47U C64A C85U G107C A108G G110C | -6.9
A26U G48A C72U | -3.67
